Laboratory results as given in publication PMC5473146.

Legend:
Dbp2 = Dbp2 (Saccharomyces cerevisiae, UniProt P24783 1-546); experiment: fluorescence anisotropy
MBP-DDX5-GST = MBP-DDX5-GST (Homo sapiens, UniProt P17844 1-614); experiment: fluorescence anisotropy
Sequence of MBP-DDX5-GST (P17844 whole entry): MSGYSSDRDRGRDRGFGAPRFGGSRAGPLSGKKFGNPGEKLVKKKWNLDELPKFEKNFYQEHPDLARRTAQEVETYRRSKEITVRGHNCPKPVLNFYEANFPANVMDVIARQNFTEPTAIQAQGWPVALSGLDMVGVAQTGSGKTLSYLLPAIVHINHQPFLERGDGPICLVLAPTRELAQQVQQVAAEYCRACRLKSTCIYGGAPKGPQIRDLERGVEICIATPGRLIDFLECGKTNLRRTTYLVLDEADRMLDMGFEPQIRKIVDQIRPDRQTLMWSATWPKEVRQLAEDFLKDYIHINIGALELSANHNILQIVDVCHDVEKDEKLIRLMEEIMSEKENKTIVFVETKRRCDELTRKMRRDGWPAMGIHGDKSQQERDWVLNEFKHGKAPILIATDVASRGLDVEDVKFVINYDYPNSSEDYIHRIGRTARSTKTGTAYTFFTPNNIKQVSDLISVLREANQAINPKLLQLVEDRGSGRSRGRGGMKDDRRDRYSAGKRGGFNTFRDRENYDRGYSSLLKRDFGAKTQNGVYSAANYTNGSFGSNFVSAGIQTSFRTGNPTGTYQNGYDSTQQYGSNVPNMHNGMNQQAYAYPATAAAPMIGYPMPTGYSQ

Sequence of Dbp2 (P24783 whole entry): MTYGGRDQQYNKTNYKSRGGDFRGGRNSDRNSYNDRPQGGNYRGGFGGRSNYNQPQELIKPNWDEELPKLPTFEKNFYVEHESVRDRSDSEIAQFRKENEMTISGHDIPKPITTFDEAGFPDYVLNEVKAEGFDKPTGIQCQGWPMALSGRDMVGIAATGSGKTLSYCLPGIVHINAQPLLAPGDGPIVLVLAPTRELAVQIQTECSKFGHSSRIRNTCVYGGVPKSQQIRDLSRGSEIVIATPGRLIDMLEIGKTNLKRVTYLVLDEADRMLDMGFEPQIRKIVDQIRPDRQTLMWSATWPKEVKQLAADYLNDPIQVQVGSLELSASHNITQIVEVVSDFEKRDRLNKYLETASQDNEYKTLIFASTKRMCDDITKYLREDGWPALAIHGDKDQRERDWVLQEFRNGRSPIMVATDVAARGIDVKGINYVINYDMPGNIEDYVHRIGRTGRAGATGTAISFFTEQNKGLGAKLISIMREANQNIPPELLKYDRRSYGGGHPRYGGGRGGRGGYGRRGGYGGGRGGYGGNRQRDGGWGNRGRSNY

## AGCACCGUAAAGACGC (ssRNA) [16-nt ssRNA (6-FAM)]
Dbp2
  binding signal: ~4 fold weaker than MBP-DDX5-GST
MBP-DDX5-GST
  binding signal: ~4 fold tighter than Dbp2
